The values below come from US20250257112A1 (SHIRE NPS PHARMACEUTICALS, published 2025).

The assay concerns the target PTH receptor ("PTHIR"). Nature of the assay: cell-based or functional assay.

B1: PTH(1-84) (ligand)
chain: SVSEIQLMHNLGKHLNSMERVEWLRKKLQDVHNFVALGAPLAPRDAGSQRPRKKEDNVLVESHEKSLGEADKADVNVLTKAKSQ
Regarding B1, the “cAMP potency (EC50)” value stood at 0.24 nM.
